Experimental data: US20250099634A1, “METHOD OF TREATING CANCER” (Novartis AG, priority 2023, published 2025)

Columns and labels:
[1] = tested on: Grade 2 and Grade 3 advanced GEP-NET; experiment: NETTER-2 Progression-Free Survival (PFS), central review using RECIST 1.1; type: in vivo, human; conditions: for Kaplan-Meier event-free estimates (95% CI): PFS
Method: The primary efficacy end-point is PFS as measured by objective tumor response, which is determined by RECIST criteria, Version 1.1 (Eisenhauer, et al., 2009). Tumor response will be assessed locally and centrally.
It is recommended that for each patient identical acquisition and reconstruction protocols be used at all time-points. Central, blinded, real-time IRC (Independent Review Committee) assessment will be conducted for determining progressive disease. Changes from randomization date will be assessed at week 16±1, week 24±1 and then every 12±1 weeks until the PFS primary analysis End-Point has been reached, then until Week 72 after randomization, unless the patient progresses or dies.
The primary endpoint of the study is progression-free survival (PFS), defined as the time from the date of randomization to the date of the first documented progression or death due to any cause. PFS will be assessed via central review according to RECIST 1.1.
The stratification will be based on following randomization stratification factors (grade: G2 vs. G3; and tumor origin: pNET vs other origin).
Analyses will be based on the FAS population according to the randomized treatment group and strata assigned at randomization. The PFS distribution will be estimated using the Kaplan-Meier method, and Kaplan-Meier curves, median and associated 95% confidence intervals will be presented for each treatment group. The hazard ratio for PFS will be calculated, along with its 95% confidence interval, from a stratified Cox model using the same stratification factors as for the log-rank test.

[2] = NETTER-2 serious adverse events in the randomized treatment period (Safety Set)
From the text: All adverse events (AEs), whether or not spontaneously reported by the patient, will be recorded starting from the signing of the ICF until the end of the Treatment Phase. Safety summaries (tables, figures) include only data from the on-treatment period with the exception of baseline data which will also be summarized where appropriate (e.g. change from baseline summaries). In addition, a separate summary for death including on treatment and post treatment deaths will be provided. In particular, summary tables for adverse events (AEs) will summarize only on-treatment events, with a start date during the on-treatment period (treatment-emergent AEs).
Separate summaries will be provided for study medication related adverse events, death, serious adverse events, other significant adverse events leading to discontinuation and adverse events leading to dose adjustment.

[3] = central review, RECIST 1.1, Full Analysis Set
[4] = All grades, randomized treatment period, Safety Set
[5] = Grade >=3, randomized treatment period, Safety Set
[6] = randomized treatment period, Safety Set

With C[C@@H](O)[C@H](NC(=O)[C@@H]1CSSC[C@H](NC(=O)[C@@H](Cc2ccccc2)NC(=O)CN2CCN(CC(=O)[O-])CCN(CC(=O)[O-])CCN(CC(=O)[O-])CC2)C(=O)N[C@@H](Cc2ccc(O)cc2)C(=O)N[C@H](Cc2c[nH]c3ccccc23)C(=O)N[C@@H](CCCCN)C(=O)N[C@@H]([C@@H](C)O)C(=O)N1)C(=O)O.[177Lu+3] [Lutathera, ^177Lu-DOTA^0-Tyr^3-Octreotate] the “Kaplan-Meier event-free estimates (95% CI)” value ([1]; 4 months, Full Analysis Set) was 95.8 (91.0, 98.1) %, the “Kaplan-Meier event-free estimates (95% CI)” value ([1]; 6 months, Full Analysis Set) was 92.3 (86.6, 95.7) % and the “Kaplan-Meier event-free estimates (95% CI)” value ([1]; 9 months, Full Analysis Set) was 85.6 (78.6, 90.5) %. The “Kaplan-Meier event-free estimates (95% CI)” value ([1]; 12 months, Full Analysis Set) was 80.7 (72.9, 86.4) %, the “Kaplan-Meier event-free estimates (95% CI)” value ([1]; 15 months, Full Analysis Set) was 71.0 (61.9, 78.3) % and the “Kaplan-Meier event-free estimates (95% CI)” value ([1]; 18 months, Full Analysis Set) was 66.5 (56.9, 74.4) %. For the same molecule, the “Kaplan-Meier event-free estimates (95% CI)” value ([1]; 24 months, Full Analysis Set) was 49.8 (38.5, 60.1) %, the “Kaplan-Meier event-free estimates (95% CI)” value ([1]; 30 months, Full Analysis Set) was 36.1 (22.3, 50.1) % and the “PFS Events” value ([1]; Full Analysis Set) was 55 (36.4) n (%). For the same molecule, the “PFS events: Deaths” value ([1]; Full Analysis Set) was 8 (5.3) n (%), the “PFS events: Progression” value ([1]; Full Analysis Set) was 47 (31.1) n (%) and the “estimated risk reduction (progression or death)” value ([1]; Lutathera arm compared to High-dose Octreotide arm) was 72%. For the same molecule, the “PFS 25th percentile (95% CI)” value [1, 3] was 14.1 (10.9, 17.0) months, the “PFS 75th percentile (95% CI)” value [1, 3] was “NE (29.0, NE)” and the “Fatal SAEs” value [2, 4] was 3 (2.0) n (%). The “Fatal SAEs Related to Amino Acids” value [2, 4] was 0 n (%), the “Fatal SAEs Related to Any Treatment” value [2, 4] was 0 n (%) and the “Fatal SAEs Related to Lutathera” value [2, 4] was 0 n (%). The “Fatal SAEs Related to Octreotide” value [2, 4] was 0 n (%), the SAEs [2, 4] was 30 (20.4) n (%) and the “SAEs Related to Amino Acids” value [2, 4] was 0 n (%). The “SAEs Related to Any Treatment” value [2, 4] was 8 (5.4) n (%), the “SAEs Related to Lutathera” value [2, 4] was 8 (5.4) n (%) and the “SAEs Related to Octreotide” value [2, 4] was 0 n (%). For the same molecule, the “Serious adverse event: Abdominal pain” value [2, 4] was 2 (1.4) n (%), the “Serious adverse event: Abdominal sepsis” value [2, 4] was 0 n (%) and the “Serious adverse event: Acute coronary syndrome” value [2, 4] was 0 n (%). For the same molecule, the “Serious adverse event: Acute kidney injury” value [2, 4] was 0 n (%), the “Serious adverse event: Anaemia” value [2, 4] was 2 (1.4) n (%) and the “Serious adverse event: Ascites” value [2, 4] was 1 (0.7) n (%). The “Serious adverse event: Blood bilirubin increased” value [2, 4] was 2 (1.4) n (%), the “Serious adverse event: Carcinoid heart disease” value [2, 4] was 0 n (%) and the “Serious adverse event: Carcinoid syndrome” value [2, 4] was 0 n (%). The “Serious adverse event: Diarrhoea” value [2, 4] was 1 (0.7) n (%), the “Serious adverse event: Femur fracture” value [2, 4] was 0 n (%) and the “Serious adverse event: Gastroenteritis” value [2, 4] was 0 n (%). For the same molecule, the “Serious adverse event: Gastrointestinal stoma complication” value [2, 4] was 2 (1.4) n (%), the “Serious adverse event: Generalised oedema” value [2, 4] was 0 n (%) and the “Serious adverse event: Hip fracture” value [2, 4] was 0 n (%). For the same molecule, the “Serious adverse event: Hyperglycaemia” value [2, 4] was 0 n (%), the “Serious adverse event: Hypertension” value [2, 4] was 0 n (%) and the “Serious adverse event: Hypoalbuminaemia” value [2, 4] was 0 n (%). The “Serious adverse event: Intestinal obstruction” value [2, 4] was 1 (0.7) n (%), the “Serious adverse event: Jaundice” value [2, 4] was 0 n (%) and the “Serious adverse event: Lower gastrointestinal haemorrhage” value [2, 4] was 0 n (%). For the same molecule, the “Serious adverse event: Metabolic encephalopathy” value [2, 4] was 0 n (%), the “Serious adverse event: Oedema peripheral” value [2, 4] was 1 (0.7) n (%) and the “Serious adverse event: Pleurisy” value [2, 4] was 0 n (%). The “Serious adverse event: Pyrexia” value [2, 4] was 2 (1.4) n (%), the “Serious adverse event: Small intestinal obstruction” value [2, 4] was 5 (3.4) n (%) and the “Serious adverse event: Tumour lysis syndrome” value [2, 4] was 0 n (%). The “Serious adverse events: Number of subjects with at least one event” value [2, 4] was 30 (20.4) n (%), the “Fatal SAEs” value [2, 5] was 3 (2.0) n (%) and the “Fatal SAEs Related to Amino Acids” value [2, 5] was 0 n (%). The “Fatal SAEs Related to Any Treatment” value [2, 5] was 0 n (%), the “Fatal SAEs Related to Lutathera” value [2, 5] was 0 n (%) and the “Fatal SAEs Related to Octreotide” value [2, 5] was 0 n (%). The SAEs [2, 5] was 24 (16.3) n (%), the “SAEs Related to Amino Acids” value [2, 5] was 0 n (%) and the “SAEs Related to Any Treatment” value [2, 5] was 6 (4.1) n (%). For the same molecule, the “SAEs Related to Lutathera” value [2, 5] was 6 (4.1) n (%), the “SAEs Related to Octreotide” value [2, 5] was 0 n (%) and the “Serious adverse event: Abdominal pain” value [2, 5] was 2 (1.4) n (%). The “Serious adverse event: Abdominal sepsis” value [2, 5] was 0 n (%), the “Serious adverse event: Acute coronary syndrome” value [2, 5] was 0 n (%) and the “Serious adverse event: Acute kidney injury” value [2, 5] was 0 n (%). The “Serious adverse event: Anaemia” value [2, 5] was 1 (0.7) n (%), the “Serious adverse event: Ascites” value [2, 5] was 0 n (%) and the “Serious adverse event: Blood bilirubin increased” value [2, 5] was 1 (0.7) n (%). The “Serious adverse event: Carcinoid heart disease” value [2, 5] was 0 n (%), the “Serious adverse event: Carcinoid syndrome” value [2, 5] was 0 n (%) and the “Serious adverse event: Diarrhoea” value [2, 5] was 0 n (%). For the same molecule, the “Serious adverse event: Femur fracture” value [2, 5] was 0 n (%), the “Serious adverse event: Gastroenteritis” value [2, 5] was 0 n (%) and the “Serious adverse event: Generalised oedema” value [2, 5] was 0 n (%). The “Serious adverse event: Hip fracture” value [2, 5] was 0 n (%), the “Serious adverse event: Hyperglycaemia” value [2, 5] was 0 n (%) and the “Serious adverse event: Hypertension” value [2, 5] was 0 n (%). For the same molecule, the “Serious adverse event: Hypoalbuminaemia” value [2, 5] was 0 n (%), the “Serious adverse event: Intestinal obstruction” value [2, 5] was 0 n (%) and the “Serious adverse event: Jaundice” value [2, 5] was 0 n (%). The “Serious adverse event: Lower gastrointestinal haemorrhage” value [2, 5] was 0 n (%), the “Serious adverse event: Metabolic encephalopathy” value [2, 5] was 0 n (%) and the “Serious adverse event: Oedema peripheral” value [2, 5] was 0 n (%). The “Serious adverse event: Pleurisy” value [2, 5] was 0 n (%), the “Serious adverse event: Pyrexia” value [2, 5] was 1 (0.7) n (%) and the “Serious adverse event: Tumour lysis syndrome” value [2, 5] was 0 n (%). The “Serious adverse events: Number of subjects with at least one event” value [2, 5] was 24 (16.3) n (%), the “Incidence of SAEs: Small intestinal obstruction” value ([2]; most frequent SAE, summary table) was 5 (3.4) (%) and the “Serious AEs” value ([2]; randomized treatment period) was 20.4%. For the same molecule, the “Serious AEs, Treatment-related” value ([2]; randomized treatment period) was 5.4%, the “SAE with fatal outcome: Blood bilirubin increased” value [2, 6] was 1 (0.7) n (%) and the “SAE with fatal outcome: Diarrhoea” value [2, 6] was 0 n (%). The “SAE with fatal outcome: Dyspnoea” value [2, 6] was 1 (0.7) n (%), the “SAE with fatal outcome: Intestinal perforation” value [2, 6] was 1 (0.7) n (%) and the “SAE with fatal outcome: Tumor Lysis syndrome” value [2, 6] was 0 n (%). For the same molecule, the “SAEs with fatal outcome” value [2, 6] was 3 (2.0) n (%) and the “SAEs with fatal outcome reported in subjects with primary reason for death = Disease under Study” value [2, 6] was 3 (2.0) n (%).
